Laboratory results reported in paper PMC6420636, “The deubiquitylating enzyme USP15 regulates homologous recombination repair and cancer cell response to PARP inhibitors” (Nature Communications, 2019).

Biological target: T1, FLAG-BARD1-BRCT, deubiquitinated by His-USP15 in vitro (UniProt Q99728 568-777)
T1 construct: BARD1 C-terminal BRCT domain; also called deubiquitinated BARD1-BRCT domain
T1 sequence (looked up): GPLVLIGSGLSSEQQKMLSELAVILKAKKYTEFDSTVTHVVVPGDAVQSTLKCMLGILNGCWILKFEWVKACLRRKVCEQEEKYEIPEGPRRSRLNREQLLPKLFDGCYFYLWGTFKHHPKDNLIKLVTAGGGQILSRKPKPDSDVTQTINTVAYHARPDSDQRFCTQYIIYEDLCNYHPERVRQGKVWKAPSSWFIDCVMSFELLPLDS
Experiment: pull-down; in vitro binding assay: BARD1-BRCT purified by tandem IP and left on FLAG beads, untreated or deubiquitinated by His-USP15, incubated with GST or GST-HP1γ
Settings: both partners purified

binding result: binds
B1: GST-HP1γ (natural protein)
chain: not shown
notes: HP1γ; plasmid a gift from Naoko Tanese; source: E. coli BL21, purified (glutathione Sepharose 4B)
